Assay [1] deals with AG1-1 specific monoclonal antibody F49. In words: competitive ELISA, biotin-GRVRVD-β-SAY on streptavidin plates, free peptide as competitor. Background: An ELISA detects its analyte on a solid surface through an enzyme-linked reagent.
The target in assay [2] is polyclonal AG1-1 specific rabbit antiserum. In words: competitive ELISA, BSA-BS^3-AG1-1 coated plates, free peptide as competitor.

Starred links: 1 amine or outer side, 2 acyl side, 3 side chain; linkers in the order of their positions; H or OH if unused. Non-standard residues stand in square brackets, D forms with d. No end group written: not given here. βAsp = O=C(O)[C@H](CC(=O)[*:2])N[*:1]

Consider GRVRV[βAsp]SAY [AG1-1 peptide, isomerized (βL) form], for which, in assay [1], the fold higher reactivity compared with the αL form was above 500 fold. Consider GRVRVNSAY (also: heated mixture: Asn6 partly converted to βL, αD and βD forms) [AG1-1 peptide … heated at 90° C. for 4 hours], for which, in assay [2], the fold higher reactivity compared with the non-boiled form turned out to be 7 fold.

Values taken from patent US20050054014A1.
